# Laboratory results as given in PMC7132122.
# Legend:
# DHX15ΔN;NKRF G-patch wt = DHX15ΔN;NKRF G-patch wt (Homo sapiens;Homo sapiens, UniProt O43143;O15226 113-795;541-603, |); assay: fluorescence polarization
# [1] = target: DHX15ΔN;NKRF G-patch V582G (Homo sapiens;Homo sapiens, UniProt O43143;O15226 113-795;541-603, |V582G); assay: fluorescence polarization
# Sequence of DHX15ΔN;NKRF G-patch V582G (O43143 113-795, chain 1 of 2): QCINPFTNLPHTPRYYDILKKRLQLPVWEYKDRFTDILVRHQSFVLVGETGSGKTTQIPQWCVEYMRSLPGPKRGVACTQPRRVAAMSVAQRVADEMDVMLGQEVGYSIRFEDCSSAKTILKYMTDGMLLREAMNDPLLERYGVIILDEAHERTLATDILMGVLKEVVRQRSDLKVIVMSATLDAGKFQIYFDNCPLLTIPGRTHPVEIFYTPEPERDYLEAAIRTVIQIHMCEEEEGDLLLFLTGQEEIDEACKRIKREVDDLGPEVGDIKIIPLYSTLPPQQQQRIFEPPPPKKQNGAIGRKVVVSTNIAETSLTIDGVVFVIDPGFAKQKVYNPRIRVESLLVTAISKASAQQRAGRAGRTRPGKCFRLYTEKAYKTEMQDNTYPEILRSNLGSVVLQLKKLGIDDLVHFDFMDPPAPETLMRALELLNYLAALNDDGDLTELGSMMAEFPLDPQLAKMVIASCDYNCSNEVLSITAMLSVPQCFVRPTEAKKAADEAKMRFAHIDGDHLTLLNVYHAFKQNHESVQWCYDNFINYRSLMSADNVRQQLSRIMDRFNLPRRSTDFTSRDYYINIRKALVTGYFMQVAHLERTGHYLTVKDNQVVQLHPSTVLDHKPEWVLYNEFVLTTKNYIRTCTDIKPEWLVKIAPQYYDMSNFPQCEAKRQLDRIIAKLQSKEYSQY
# Sequence of DHX15ΔN;NKRF G-patch V582G (O15226 541-603 V582G, chain 2 of 2): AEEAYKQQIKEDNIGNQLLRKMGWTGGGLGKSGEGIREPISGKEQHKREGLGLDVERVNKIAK
# Sequence of DHX15ΔN;NKRF G-patch wt (O43143 113-795, stated change not applied, chain 1 of 2): as the sequence (O43143 113-795, chain 1 of 2) above
# Sequence of DHX15ΔN;NKRF G-patch wt (O15226 541-603, stated change not applied, chain 2 of 2): as the sequence (O15226 541-603 V582G, chain 2 of 2) above, with G42V counted along it
binder,measurement,setting,value
UUUUUUUUUUUU (ssRNA) [FAM-U12 RNA],binding signal,DHX15ΔN;NKRF G-patch wt,~1 fold of Kd without nucleotide
same,binding signal,[1],1.2 fold increase of affinity
